Measured values: patent EP4640709A1

Experiments:
mouse CX3CR1 (mouse) [1] = target: mouse CX3CR1 (mouse) (UniProt Q9Z0D9); experiment: flow cytometry, chimeric CX3CR1-expressing Ba/F3 cells
human CX3CR1 (human) [2] = target: human CX3CR1 (human) (UniProt P49238); experiment: flow cytometry, chimeric CX3CR1-expressing Ba/F3 cells, 200 nM, grade vs positive antibody (+++ >70%, ++ 40-70%, + 10-40%, - <10%)
[3] = target: cynomolgus monkey CX3CR1 (cynomolgus monkey); experiment: flow cytometry, CX3CR1-expressing Ba/F3 cells
human CX3CR1 (human) [4] = target: human CX3CR1 (human) (UniProt P49238); experiment: flow cytometry, CX3CR1-expressing Ba/F3 cells
human CX3CR1 (human) [5] = target: human CX3CR1 (human) (UniProt P49238); experiment: flow cytometry, chimeric CX3CR1-expressing Ba/F3 cells
mouse CX3CR1 (mouse) [6] = target: mouse CX3CR1 (mouse) (UniProt Q9Z0D9); experiment: flow cytometry, chimeric CX3CR1-expressing Ba/F3 cells, 200 nM, grade vs positive antibody (+++ >70%, ++ 40-70%, + 10-40%, - <10%)
mouse CX3CR1 (mouse) [7] = target: mouse CX3CR1 (mouse) (UniProt Q9Z0D9); experiment: flow cytometry, CX3CR1-expressing Ba/F3 cells, 200 nM, grade vs positive antibody (+++ >70%, ++ 40-70%, + 10-40%, - <10%); this antibody is itself the 100% reference
rat CX3CR1 (rat) = rat CX3CR1 (rat) (UniProt P35411); experiment: as above
rat CX3CR1 (rat), sequence (P35411 whole entry): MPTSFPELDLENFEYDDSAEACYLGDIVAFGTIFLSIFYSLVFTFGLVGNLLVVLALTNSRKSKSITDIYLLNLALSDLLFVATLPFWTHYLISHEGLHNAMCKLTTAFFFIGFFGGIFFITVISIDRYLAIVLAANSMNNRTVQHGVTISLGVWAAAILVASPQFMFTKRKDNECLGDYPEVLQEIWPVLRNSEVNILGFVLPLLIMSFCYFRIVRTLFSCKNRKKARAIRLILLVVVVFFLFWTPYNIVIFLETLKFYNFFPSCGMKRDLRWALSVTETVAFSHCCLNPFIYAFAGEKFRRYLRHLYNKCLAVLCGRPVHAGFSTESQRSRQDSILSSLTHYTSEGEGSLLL

mouse CX3CR1 (mouse), sequence (Q9Z0D9 whole entry): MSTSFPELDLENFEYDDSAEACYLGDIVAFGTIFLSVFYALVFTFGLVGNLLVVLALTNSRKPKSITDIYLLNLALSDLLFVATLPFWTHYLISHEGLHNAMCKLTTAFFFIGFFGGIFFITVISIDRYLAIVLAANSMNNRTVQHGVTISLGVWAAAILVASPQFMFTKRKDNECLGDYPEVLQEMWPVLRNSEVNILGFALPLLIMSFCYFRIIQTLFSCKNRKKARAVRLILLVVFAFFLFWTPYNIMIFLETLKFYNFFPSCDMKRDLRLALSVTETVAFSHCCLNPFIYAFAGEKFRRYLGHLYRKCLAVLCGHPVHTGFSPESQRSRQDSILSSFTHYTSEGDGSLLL
human CX3CR1 (human), sequence (P49238 whole entry): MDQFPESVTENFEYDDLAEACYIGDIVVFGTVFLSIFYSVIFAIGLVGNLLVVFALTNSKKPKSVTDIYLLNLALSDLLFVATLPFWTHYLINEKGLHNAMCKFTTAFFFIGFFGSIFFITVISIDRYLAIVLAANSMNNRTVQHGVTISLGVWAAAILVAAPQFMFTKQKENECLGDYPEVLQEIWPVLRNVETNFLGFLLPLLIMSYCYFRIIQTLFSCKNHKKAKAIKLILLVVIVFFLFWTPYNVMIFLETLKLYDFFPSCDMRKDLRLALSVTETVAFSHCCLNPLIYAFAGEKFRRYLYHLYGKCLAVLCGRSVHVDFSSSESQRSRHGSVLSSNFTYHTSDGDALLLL

| Substance | relative value (% reactivity, MFI) compared to positive antibody at 200 nM (mouse CX3CR1 (mouse) [1]) | relative value (% reactivity, MFI) compared to positive antibody at 200 nM (human CX3CR1 (human) [2]) | relative value (% reactivity, MFI) compared to positive antibody at 200 nM [3] | relative value (% reactivity, MFI) compared to positive antibody at 200 nM (human CX3CR1 (human) [4]) | relative value (% reactivity, MFI) compared to positive antibody at 200 nM (human CX3CR1 (human) [5]) | relative value (% reactivity, MFI) compared to positive antibody at 200 nM (mouse CX3CR1 (mouse) [6]) | relative value (% reactivity, MFI) compared to positive antibody at 200 nM (mouse CX3CR1 (mouse) [7]) | relative value (% reactivity, MFI) compared to positive antibody at 200 nM (rat CX3CR1 (rat)) |
| --- | --- | --- | --- | --- | --- | --- | --- | --- |
| anti-hCX3CR1 antibody K0124E1 (Biolegend) | < 10% | 40 to 70% | – | – | – | – | – | – |
| anti-mouse CX3CR1 antibody SA011F11 (Biolegend) | – | – | < 10% | < 10% | < 10% | > 70% | > 70% | > 70% |
